Data on two molecules can be found in patent publication EP4063498B1.

Changes are numbered by the printed parent chain.

This assay deals with OXA-23-type carbapenemase (UniProt Q9L4P2). As to the kind of experiment: indirect ELISA, plate coated with OXA-23-type carbapenemase at 0.2 ug/mL, serial dilution of purified antibody from 1:1,000. The conditions noted are these: scale: dilution factor. Background: In an ELISA, binding on a coated surface is turned into a signal by an enzyme label.
Sequence of UniProt Q9L4P2 (Q9L4P2 18-273 limits assumed): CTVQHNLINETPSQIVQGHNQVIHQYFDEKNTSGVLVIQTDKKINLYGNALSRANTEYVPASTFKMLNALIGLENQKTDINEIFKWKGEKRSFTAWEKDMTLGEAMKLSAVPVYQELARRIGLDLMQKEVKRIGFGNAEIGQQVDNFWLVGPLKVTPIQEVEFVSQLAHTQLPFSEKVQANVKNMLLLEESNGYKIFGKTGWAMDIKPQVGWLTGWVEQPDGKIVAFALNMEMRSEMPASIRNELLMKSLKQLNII

B1: antibody HB12 (antibody, V domains shown)
VH: VQLQQSGAELVKPGASVKLSCKTSGYTFTSYWMYWVKQRPGQGLEWIGEIYPTNGRTNYNEKFKTKATLTVDKSSSTAYMQLSSLTSEDSAVYYCAIYYYGSYAMDYWGQGTSVTVSS
VL: DIVMTQSHKFMSTSVGDRVSITCKASQDVSIAVAWFQQKPGQSPKLLIYWASTRHTGVPDRFTGSGSGTDYTLTISSVQAEDLALYYCQQHYSTPYLFGGGTKLEIKR
B1 returned a titer greater than 640000.

B2: antibody FA2 (antibody, V domains shown)
VH: VQLKQSGPGLVQPSQSLSITCTVSGFSLTSYGVHWVRRSPGKGLEWLGVIWRGGNTDYNAAFMSRLSITKDNSKSQVFFKMTSLQGDDTAIYSCVKSLTTSTFDYWGQGTLVTVSS
VL: B1 VL with F10L, A25G, S30R, I31T, F36Y, K45N, T72I, S76T, T94I, L97T
B2 gave a titer greater than 640000.
